Where a chain is given by its changes, count along the chain named. Each block holds one binder with its values, some of them ahead of it.
Columns and labels:
[1] = biological target: T1, human Mac-1 (integrin αMβ2, CD11b/CD18) (human, UniProt P11215 17-1152; P05107 23-769); experiment: flow cytometry, HEK293/Mac-1 cells, PBS (Mock), 10 µg/ml of this antibody; binding of reporter mAb m24 read
Procedure: (§1) The HEK293/Mac-1 cells (clone1-4) were counted and washed twice with staining buffer (PBS containing 1% FBS, and 0.1% sodium azide). Cells were adjusted at a concentration of 1×10⁵ cells/ml in staining buffer and treated with/without 0.25 mM MnCl₂ (Sigma). Cells were treated with anti-Mac-1 antibodies and fluorescent conjugated anti-human IgG4 antibodies and incubated for 15 mins. After washing with the staining buffer, the cells were analyzed by flow cytometry. In some examples, these cells were treated with the antibodies (ICRF44, KIM127, m24, or isotype control) in the presence or absence 10 μg/ml anti-Mac-1 antibodies. The cells were then incubated at 37° C. for 30 min. After washing with the staining buffer, the cells were analyzed by flow cytometry.
(§2) TABLE III The anti-Mac-1 antibodies can serve as agonist to enhance the conformational change of Mac-1. HEK293/Mac-1 cells (clone1-4) were incubated with 10 μg/ml anti-Mac-1 antibodies under the PBS (Mock) condition. Binding of KIM127 or m24 was detected using flow cytometry.

[2] = biological target: T1, human Mac-1 (integrin αMβ2, CD11b/CD18); experiment: flow cytometry, HEK293/Mac-1 cells (clone 1-4), PBS/MnCl2 (Mn2+)
Procedure: as §1
(§3) TABLE II The anti-Mac-1 antibodies selectively bind to different statuses of human Mac-1. HEK293/Mac-1 cells (clone1-4) were incubated in PBS (Mock), or PBS/MnCl₂ (Mn²⁺). Binding of isotype control IgG, the CD11b specific mAb (ICRF44), the CD11b activation-sensing mAb (CBRM1/5), or the screened anti-Mac-1 antibody was detected using flow cytometry.

[3] = biological target: T1, human Mac-1 (integrin αMβ2, CD11b/CD18); experiment: flow cytometry, HEK293/Mac-1 cells, PBS (Mock), 10 µg/ml of this antibody; binding of reporter mAb KIM127 read
Procedure: as §1, §2

[4] = biological target: T1, human Mac-1 (integrin αMβ2, CD11b/CD18); experiment: flow cytometry, HEK293/Mac-1 cells, PBS/MnCl2 (Mn2+), 10 µg/ml of this antibody; binding of reporter mAb KIM127 read
Procedure: as §1
(§4) TABLE IV The anti-Mac-1 antibody can serve as an antagonist to reduce the conformational change of Mac-1. HEK293/Mac-1 cells (clone1-4) were incubated with 10 μg/ml anti-Mac-1 antibodies under the PBS/MnCl₂ (Mn²⁺) condition. Binding of KIM127 or m24 was detected using flow cytometry.

[5] = biological target: T1, human Mac-1 (integrin αMβ2, CD11b/CD18); experiment: flow cytometry, HEK293/Mac-1 cells; MFI in PBS over MFI in PBS/MnCl2
Procedure: as §1, §3

[6] = biological target: T1, human Mac-1 (integrin αMβ2, CD11b/CD18); experiment: flow cytometry, HEK293/Mac-1 cells (clone 1-4), PBS (Mock)
Procedure: as §1, §3

[7] = biological target: T1, human Mac-1 (integrin αMβ2, CD11b/CD18); experiment: flow cytometry, HEK293/Mac-1 cells, PBS/MnCl2 (Mn2+), 10 µg/ml of this antibody; binding of reporter mAb m24 read
Procedure: as §1, §4

m24 (Expression relative to IgG4) [1]: 0.63 relative to IgG4 | Mn^2+ MFI [2]: 56400 MFI | KIM127 (Expression relative to IgG4) [3]: 0.98 relative to IgG4 | KIM127 (Expression relative to IgG4) [4]: 0.65 relative to IgG4 | Mock/Mn^2+ Ratio [5]: 0.95 | Mock MFI [6]: 53400 MFI | m24 (Expression relative to IgG4) [7]: 0.85 relative to IgG4
B1: anti-Mac-1 antibody clone 28E07 (antibody, human IgG4, V domains shown)
VH: QVQLQQSGPELVKPGASVKISCKASGYSFTDYNMNWVKQSNGKSLEWIGEINPGYGTSRYNQKFKDKATLTVDQSSTTAYMQLNSLTSEDSAVYYCARADVDYGDVMDYWGQGTTVTVSS
VL: DIELTQSPAIMSASPGEKVTMTCSASSSVSYMHWYQQKSGTSPKRWIYDTSKLASGVPTRFSGSGSGTSYSLTISSMEAEDAATYYCQQWSSNPPTFGAGTKLELK

m24 (Expression relative to IgG4) [1]: 0.88 relative to IgG4 | Mn^2+ MFI [2]: 37300 MFI | KIM127 (Expression relative to IgG4) [3]: 1.02 relative to IgG4 | KIM127 (Expression relative to IgG4) [4]: 0.87 relative to IgG4 | Mock/Mn^2+ Ratio [5]: 1.48 | Mock MFI [6]: 55200 MFI | m24 (Expression relative to IgG4) [7]: 1.07 relative to IgG4
B2: anti-Mac-1 antibody clone 28A12 (antibody, human IgG4, V domains shown)
VH: B1 VH with Q3K, Q6E, T77S, V106T
VL: B1 VL with Y31D, T41N, T59V

m24 (Expression relative to IgG4) [1]: 0.83 relative to IgG4 | Mn^2+ MFI [2]: 1.02e+06 MFI | KIM127 (Expression relative to IgG4) [3]: 0.9 relative to IgG4 | KIM127 (Expression relative to IgG4) [4]: 0.87 relative to IgG4 | Mock/Mn^2+ Ratio [5]: 1.01 | Mock MFI [6]: 1.03e+06 MFI | m24 (Expression relative to IgG4) [7]: 0.75 relative to IgG4
B3: anti-Mac-1 antibody clone 28E07-HH (antibody, human IgG4, V domains shown)
VH: QVQLVQSGAEVKKPGASVKVSCKASGYSFTDYNMNWVRQAPGQGLEWMGEINPGYGTSRYNQKFKDRVTMTRDTSISTAYMELSRLRSDDTAVYYCARADVDYGDVMDYWGQGTLVTVSS
VL: EIVLTQSPATLSLSPGERATLSCSASSSVSYMHWYQQKPGQAPRLLIYDTSKLASGIPARFSGSGSGTDFTLTISSLEPEDFAVYYCQQWSSNPPTFGQGTKLEIK

m24 (Expression relative to IgG4) [1]: 9.33 relative to IgG4 | Mn^2+ MFI [2]: 65800 MFI | KIM127 (Expression relative to IgG4) [3]: 1.58 relative to IgG4 | KIM127 (Expression relative to IgG4) [4]: 1.34 relative to IgG4 | Mock/Mn^2+ Ratio [5]: 0.6 | Mock MFI [6]: 39600 MFI | m24 (Expression relative to IgG4) [7]: 2.11 relative to IgG4
B4: anti-Mac-1 antibody clone 25A04 (antibody, human IgG4, V domains shown)
VH: EVQLVESGGGLVQPGGSLRLSCAASGFTFSFTAMHWVRQAPGKGLEWVSAIIYNGSEADYADSVKGRFTISRDNSKNTLYLQMNSLRAEDTAVYYCARANDYDHGCCDNYAMDYWGQGTLVTVSS
VL: DIQMTQSPSSLSASVGDRVTITCRASQGIGSYLYWYQQKPGKAPKLLIYDASNLQSGVPSRFSGSGSGTDFTLTISSLQPEDFATYYCMQHGGWPLTFGQGTKVEIK

m24 (Expression relative to IgG4) [1]: 0.72 relative to IgG4 | Mn^2+ MFI [2]: 26900 MFI | KIM127 (Expression relative to IgG4) [3]: 1.01 relative to IgG4 | KIM127 (Expression relative to IgG4) [4]: 0.89 relative to IgG4 | Mock/Mn^2+ Ratio [5]: 1.1 | Mock MFI [6]: 29500 MFI | m24 (Expression relative to IgG4) [7]: 1 relative to IgG4
B5: anti-Mac-1 antibody clone 24G09 (antibody, human IgG4, V domains shown)
VH: EVQLVESGGGLVQPGGSLRLSCAASGFTFSDYAIGWVRQAPGKGLEWVSTIYWSGSNAYYADSVKGRFTISRDNSKNTLYLQMNSLRAEDTAVYYCARLFTLGYHGFDVWGQGTLVTVSS
VL: B4 VL with G28S, G30N, S31T, Y34N, M89Q, H91Y, G92D, G93D, W94L, L96F

m24 (Expression relative to IgG4) [1]: 1.2 relative to IgG4 | Mn^2+ MFI [2]: 16600 MFI | KIM127 (Expression relative to IgG4) [3]: 0.99 relative to IgG4 | KIM127 (Expression relative to IgG4) [4]: 1.05 relative to IgG4 | Mock/Mn^2+ Ratio [5]: 0.9 | Mock MFI [6]: 15000 MFI | m24 (Expression relative to IgG4) [7]: 1.38 relative to IgG4
B6: anti-Mac-1 antibody clone 27D06 (antibody, human IgG4, V domains shown)
VH: QVKLQESGAEVVKPGASVKISCKASGYSFTDYNMNWVKQSNGKSLEWIGVINPNYGTTSYNQKFKGKATLTVDQSSSTAYMQLNSLTSEDSAVYYCARTYDYDGDAFAYWGQGTTVTVSS
VL: DIELTQSPALMSASPGEKVTMTCRASSSVSSNNLHWYQQKSGASPKLWIYSTSNLATGAPARFSGSGSGTSYSLTISSMEAEDAATYYCQQWNSNPPTFGGGTKLEIK
